Test results as given in publication PMC11067747.

Target: recombinant phytoplasmal effector causing phyllody 1 (PHYL1)
Assay: cross-linking; recombinant IMP and PHYL1 mixed at 30 µM each in 1x PBS, 15 min at 20°C, then 1 mM bis(sulfosuccinimidyl)suberate (BS3) for 60 min; SDS-PAGE and Western blot with anti-IMP and anti-PHYL1

With “recombinant immunodominant membrane protein (IMP) without the transmembrane domain, amino acids 33-172, from Crotalaria witches' broom phytoplasma (domain or fragment)” the stoichiometry N was 1.
